Experimental data published in publication PMC10791855.

Experiments:
Experiment in all cases: SEC; gel filtration on HiPrep 16/60 Sephacryl S-200 HR in 20 mM Tris-HCl, 1.5 M NaCl, 50 mM imidazole, pH 7.4; molecular mass estimated against standard proteins
[1] = biological target: Universal stress protein USP5 from Haloferax mediterranei (Haloferax mediterranei)
[2] = biological target: Universal stress protein USP21 from Haloferax mediterranei (Haloferax mediterranei)
[3] = biological target: Universal stress protein USP28 from Haloferax mediterranei (Haloferax mediterranei)

Universal stress protein USP5 from Haloferax mediterranei (natural protein)
stoichiometry N [1]: 2

Universal stress protein USP21 from Haloferax mediterranei (natural protein)
stoichiometry N [2]: 2

Universal stress protein USP28 from Haloferax mediterranei (natural protein)
stoichiometry N [3]: 2
